In article PMC9079946, “Enzyme-free ultrasensitive fluorescence detection of epithelial cell adhesion molecules based on a toehold-aided DNA recycling amplification strategy†”:

Columns and labels:
EpCAM = biological target: T1, EpCAM (UniProt P16422 24-265); assay: strand a displacement with toehold-aided fluorescence amplification; 30 nM aptamer/strand a, 50 ng/mL EpCAM, 10 mM Mg2+; strands b, c, d, e 100 nM; 20 mM Tris-HCl, 100 mM NaCl, 10 mM KCl, 10 mM MgCl2, pH 7.5, 37 °C, 30 min; settings: protein: commercial; partial duplex: 15 nt strand a hybridised to 48 nt aptamer; single-stranded 5' and 3' aptamer overhangs
T1 sequence: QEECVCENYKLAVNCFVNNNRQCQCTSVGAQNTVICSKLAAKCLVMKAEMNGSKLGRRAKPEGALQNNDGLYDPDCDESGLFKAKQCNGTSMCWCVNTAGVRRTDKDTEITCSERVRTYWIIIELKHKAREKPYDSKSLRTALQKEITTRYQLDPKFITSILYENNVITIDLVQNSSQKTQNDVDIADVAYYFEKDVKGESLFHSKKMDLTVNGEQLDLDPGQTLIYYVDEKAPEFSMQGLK

CD86 = CD86 (UniProt P42081 24-247); assay: strand a displacement with toehold-aided fluorescence amplification; 100 ng/mL CD86; slight fluorescence change only; 20 mM Tris-HCl, 100 mM NaCl, 10 mM KCl, 10 mM MgCl2, pH 7.5, 37 °C, 30 min; settings: protein: commercial; partial duplex: 15 nt strand a hybridised to 48 nt aptamer; single-stranded 5' and 3' aptamer overhangs
Sequence of CD86 (P42081 24-247): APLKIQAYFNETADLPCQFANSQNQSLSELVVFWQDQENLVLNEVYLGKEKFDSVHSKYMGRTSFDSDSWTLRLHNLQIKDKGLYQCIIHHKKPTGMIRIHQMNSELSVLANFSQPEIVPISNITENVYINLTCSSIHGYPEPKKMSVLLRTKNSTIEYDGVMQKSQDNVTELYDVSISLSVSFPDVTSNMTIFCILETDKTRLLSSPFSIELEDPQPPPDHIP

B1: EpCAM aptamer / strand a duplex (mixed)
DNA 1: CACTACAGAGGTTGCGTCTGTCCCACGTTGTCATGGGGGGTTGGCCTG
DNA 2: AGACGCAACCTCTGT
EpCAM
  binding result: binds
CD86
  binding result: no binding
